Results as given in the supplement of paper PMC10899765.

Key:
Conditions in all cases: 20 nM; 72 h
MCF10A [1] = experiment: 5+ nucleoli phenotype percent effect (relative to siNT 0% and siKIF11 100%); higher = more cells with five or more nucleoli
Protocol: (§1)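 After 72 h, cells were fixed and stained with Hoechst and anti-fibrillarin, and nucleoli per nucleus were counted with CellProfiler. Values are plate-adjusted percent effect for the one-nucleolus and 5+ nucleoli phenotypes, normalised to siNT (0%) and to the positive controls siNOL11 or siKIF11 (100%), as the mean of biological triplicates. Percent viability is the nuclei count relative to siNT.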

MCF10A [2] = experiment: one-nucleolus phenotype percent effect (relative to siNT 0% and siNOL11 100%); higher = more cells with one nucleolus (ribosome biogenesis inhibition)
Protocol: as §1

MCF10A [3] = experiment: percent viability (nuclei count relative to siNT); higher = more viable cells
Protocol: as §1

Row | Sequence | 5+ nucleoli phenotype percent effect (MCF10A [1]) [%] | one-nucleolus phenotype percent effect (MCF10A [2]) [%] | percent viability (MCF10A [3]) [%]
1 | AGGAGAUCCUGGGUU [hsa-miR-3676-5p] | -13.3 | 18.3 | 30.1
2 | UUGGCUGGUCUCUGCUCCGCAG [hsa-miR-6842-3p] | -0.515 | 19.7 | 24.9
3 | CUCGGGCGGAGGUGGUUGAGUG [hsa-miR-4750-5p] | -7.37 | 14.8 | 40.2
4 | AGUUUGGGAUGGAGAGAGGAGA [hsa-miR-6740-5p] | 24.1 | -20.1 | 83.1
5 | GGUGCAGUGCUGCAUCUCUGGU [hsa-miR-143-5p] | -0.693 | -7.79 | 89.5
6 | AAGGGGCUGGGGGAGCACA [hsa-miR-6085] | -17.6 | 33.3 | 22
7 | UCUUGAAGUCAGAACCCGCAA [hsa-miR-4635] | -29.8 | 19.8 | 45.8
8 | UGGUGGUUUACAAAGUAAUUCA [hsa-miR-876-3p] | -33.4 | 57.7 | 10.9
9 | CGGGCUGUCCGGAGGGGUCGGCU [hsa-miR-4741] | 42.5 | -21.4 | 65.1
10 | CAGGUCACGUCUCUGCAGUUAC [hsa-miR-370-5p] | 5.92 | -14.6 | 54.3
11 | UAUACCUCAGUUUUAUCAGGUG [hsa-miR-875-5p] | 32.3 | -18.7 | 119
12 | ACUGGACUUGGAGCCAGAAG [hsa-miR-378f] | 33.7 | -12.4 | 45.3
13 | UGAGUUGGCCAUCUGAGUGAG [hsa-miR-571] | 5.09 | -7.45 | 84.6
14 | AUAAGACGAACAAAAGGUUUGU [hsa-miR-208b] | 3.95 | 2.18 | 63
15 | UCUUCAACCUCAGGACUUGCA [hsa-miR-676-5p] | 37.9 | -20.5 | 56
16 | CUAUGGCGAGACUGGCAUGUACUC [hsa-miR-8074] | 26.4 | -12.8 | 110
17 | GCUGACUCCUAGUCCAGGGCUC [hsa-miR-345-5p] | 31.9 | -8.97 | 100
18 | GUCCCUGAGUGUAUGUGGUG [hsa-miR-670] | 48 | -27.4 | 47.5
19 | GUGAGUCAGGGUGGGGCUGG [hsa-miR-937-5p] | -10.1 | 19.2 | 41.5
20 | UGGGCAGGGGCUUAUUGUAGGAG [hsa-miR-6721-5p] | 22 | 19.5 | 21.3

Row | Sequence | 5+ nucleoli phenotype percent effect (MCF10A [1]) [%] | one-nucleolus phenotype percent effect (MCF10A [2]) [%] | percent viability (MCF10A [3]) [%]
21 | GUGGGAUUUCUGAGUAGCAUC [hsa-miR-5089-5p] | -4.04 | 3.12 | 36.5
22 | UGCUUCCUUUCAGAGGGU [hsa-miR-516a-3p] | -23 | -10.2 | 100
23 | UGUCUACUACUGGAGACACUGG [hsa-miR-934] | -13.1 | 22.5 | 37.1
24 | UAGCCUUCAGAUCUUGGUGUUUU [hsa-miR-3614-3p] | -23.5 | 28.6 | 51.5
25 | UGAGGGACCCAGGACAGGAGA [hsa-miR-6875-5p] | -0.911 | 13.7 | 29
26 | UGGAGACGCGGCCCUGUUGGAGU [hsa-miR-139-3p] | -24.5 | 20.9 | 68
27 | UGUCUCUCGCCCUUGGCCUUAG [hsa-miR-6895-3p] | -32.5 | 34.7 | 19.4
28 | UUCAAGUAAUCCAGGAUAGGCU [hsa-miR-26a-5p] | 17.8 | -6.05 | 103
29 | UGGGGGGACAGGAUGAGAGGCUGU [hsa-miR-6795-5p] | -6.99 | 28.6 | 16.8
30 | ACCCGCCCGUCUCCCCACAG [hsa-miR-7108-3p] | 28.2 | -20.7 | 110
31 | CGGGUAGAGAGGGCAGUGGGAGG [hsa-miR-197-5p] | 48.2 | -25.5 | 44.8
32 | UCCCUGAGACCCUAACUUGUGA [hsa-miR-125b-5p] | 17.3 | -11.8 | 93.8
33 | UGCAUGACCCUUCCCUCCCCAC [hsa-miR-6797-3p] | -8.08 | 1.95 | 31.8
34 | UGGGGGCUGGAUGGGGUAGAGU [hsa-miR-6846-5p] | -0.876 | 7.84 | 23.9
35 | ACAUUGCCAGGGAGUUU [hsa-miR-4317] | -11 | -2.43 | 45.1
36 | UCAGAUGAUCUAAAGGCCUAUA [hsa-miR-1245b-3p] | -4.77 | 9.29 | 34.5
37 | AUGAAGUGCACUCAUGAUAUGU [hsa-miR-3616-5p] | -38.4 | 32.7 | 27.9
38 | GUGAAGGCCCGGCGGAGA [hsa-miR-6126] | -28.6 | -11.8 | 77.8
39 | UCUAGUGCGGGCGUUCCCG [hsa-miR-6080] | 23.2 | -6.26 | 85.3
40 | UGGGAGCUAAGCUAUGGGUAU [hsa-miR-5591-5p] | -6.94 | 13.6 | 13.9

Row | Sequence | 5+ nucleoli phenotype percent effect (MCF10A [1]) [%] | one-nucleolus phenotype percent effect (MCF10A [2]) [%] | percent viability (MCF10A [3]) [%]
41 | UAUGGCUUUUCAUUCCUAUGUGA [hsa-miR-135b-5p] | -32.7 | 21.8 | 47.9
42 | UGGCAAACGUGGAAGCCGAGA [hsa-miR-4470] | -21.5 | 61 | 15.8
43 | CACCGACUCUGUCUCCUGCAG [hsa-miR-6510-3p] | -12.7 | 11.7 | 69.9
44 | UCUGCCAUAGGAAGCUUGGAGUGG [hsa-miR-6817-5p] | 1.17 | -25 | 65.4
45 | AAAUAUGAUGAAACUCACAGCUGAG [hsa-miR-4517] | 12.3 | 0.779 | 24
46 | UCUACAGUGCACGUGUCUCCAGU [hsa-miR-139-5p] | -2.1 | -8.78 | 67.5
47 | UAGGCACACUUAAAGUUAUAGC [hsa-miR-5582-5p] | -17.3 | 37.6 | 13.8
48 | UGACCUUUGCCUCUCCCCUCAG [hsa-miR-6759-3p] | -31.2 | 51.3 | 20.7
49 | GAAUACUAAGUAAAAAAUCAGUA [hsa-miR-8084] | 66.7 | -33.5 | 215
50 | UGAGUGCCGGUGCCUGCCCUG [hsa-miR-1909-5p] | -15.5 | 18.8 | 46.8
51 | UUAGGGAGUAGAAGGGUGGGGAG [hsa-miR-3162-5p] | -5.7 | 8.12 | 52.8
52 | CGGGGGCGGGGCCGAAGCGCG [hsa-miR-1237-5p] | 45.4 | -22 | 85.4
53 | UUCUGGAUAUGAAGACAAUCAA [hsa-miR-4782-5p] | -38.6 | 44.9 | 16.3
54 | CAGGAUGUGGUCAAGUGUUGUU [hsa-miR-1265] | 67.6 | -25.1 | 123
55 | UGUAAACAUCCUACACUCAGCU [hsa-miR-30b-5p] | 34.3 | -9.57 | 93
56 | GAGGUUUGGGGAGGAUUUGCU [hsa-miR-4748] | -23.1 | 39.1 | 24.1
57 | AGAGAUUGGUAGAAAUCAGGU [hsa-miR-5186] | -25.3 | 28.7 | 33.8
58 | ACAAAGUGCUUCCCUUUAGAGU [hsa-miR-520h] | 11.9 | -15 | 173
59 | AUGACCUAUGAAUUGACAGAC [hsa-miR-215] | -16.4 | 45.7 | 29.2
